Test results taken from the RNAGym collection of RNA variant scans (doi:10.1093/nar/gkz1192).

B1: CPEB3 Ribozyme (parent)
chain: UAACAGGGGGCCACAGCAGAAGCGUUCACGUCGCAGCCCCUGUCAGAUUCUGGUGAAUCUGCGAAUUCUGCUGUAUAUCUC

Variants of: B1
Test: self-cleavage, relative activity (ratio to wild type); higher = more cleavage; in vitro, sequencing
Summary of the method: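 CPEB3 self-cleaving ribozyme mutant libraries were made by rounds of error-prone PCR, barcoded, and transcribed in vitro with T7 RNA polymerase for 5 hours at 37°C. Cleavage occurred during transcription and a 15 min DNase I step before EDTA stop. RNAs were reverse transcribed with template switching and Illumina-sequenced, with DNA sequencing mapping barcodes to variants. Relative activity is the variant's cleaved/total read fraction divided by wild type's (minimum 5 reads), averaged across three batches.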

Variant | self-cleavage
UAACAGGGGGCCACAGCAGAAGCGUUCACGUCGCAGCCCUUGUCAGAUUCUGAUGAAUCUGCGAAUUCUGCUGUAUAUCUC [C40U G53A] | 0.84
UAACAGGGGGCCACAGCAGAAGCGUUCACGUCGCAGCCCGUGUCAGAUUCUGGUGAAUCUGCGAACUCUGCUGUAUAUCUC [C40G U66C] | 0.22
UAACAGGGGGCCACAGCAGAAGCGUUCACGUCGCAGCCCUUGACAGAUUCUGGUGAAUCUGCGAAUUCUGCUGUAUAUCUC [C40U U43A] | 0.92
UAACAGGGGGCCACAGCAGAAGCGUUCACGUCGCAGCCCUUGCCAGAUUCUGGUGAAUCUGCGAAUUCUGCUGUAUAUCUC [C40U U43C] | 0.39
UAACAGGGGGCCACAGCAGAAGCGUUCACGUCGCAGCCCUUGUCAGAUUCUGGUGAAUCUGCGAAUUCUGCUGUUUAUCUC [C40U A75U] | 0.74
UAACAGGGGGCCACAGCAGAAGCGUUCACGUCGCAGCCCUUGUCAGAUUCUGGUGAAUCUGCGAAUUCUGCUGUGUAUCUC [C40U A75G] | 0.5
UAACAGGGGGCCACAGCAGAAGCGUUCACGUCGCAGCCCUUGUCAGGUUCUGGUGAAUCUGCGAAUUCUGCUGUAUAUCUC [C40U A47G] | 0.5
UAACAGGGGGCCACAGCAGAAGCGUUCACGUCGCAGCCCUUGUCAGUUUCUGGUGAAUCUGCGAAUUCUGCUGUAUAUCUC [C40U A47U] | 0.32
UAACAGGGGGCCACAGCAGAAGCGUUCACGUCGCAGCCCUUGUCAGAUUCUGGUGAAUCUGCGUAUUCUGCUGUAUAUCUC [C40U A64U] | 0.27
UAACAGGGGGCCACAGCAGAAGCGUUCACGUCGCAGCCCUUGUCAGAUUCUGGUGAAUCUGCGGAUUCUGCUGUAUAUCUC [C40U A64G] | 0.54
UAACAGGGGGCCACAGCAGAAGCGUUCACGUCGCAGCCCUUAUCAGAUUCUGGUGAAUCUGCGAAUUCUGCUGUAUAUCUC [C40U G42A] | 0.27
UAACAGGGGGCCACAGCAGAAGCGUUCACGUCGCAGCCCGUGUCAGAUUCUGGUGAAUCUGCGAAUUCUGCCGUAUAUCUC [C40G U72C] | 0.48
UAACAGGGGGCCACAGCAGAAGCGUUCACGUCGCAGCCCGUGUCAGAUUCUGGUGAAUCUGCGAAUUCUGCGGUAUAUCUC [C40G U72G] | 0.16
UAACAGGGGGCCACAGCAGAAGCGUUCACGUCGCAGCCCGUGUCAGAUUCUGGGGAAUCUGCGAAUUCUGCUGUAUAUCUC [C40G U54G] | 0.29
UAACAGGGGGCCACAGCAGAAGCGUUCACGUCGCAGCCCUUGUCAGAUUCUGGUGAAUCUGCGAAUUCGGCUGUAUAUCUC [C40U U69G] | 0.57
UAACAGGGGGCCACAGCAGAAGCGUUCACGUCGCAGCCCUUGUCAGAUUCUGGUGAAUCUGCGAAUUCAGCUGUAUAUCUC [C40U U69A] | 0.41
UAACAGGGGGCCACAGCAGAAGCGUUCACGUCGCAGCCCUUGUCAGAUUCUGGUGAAUCUGCGAAUUCCGCUGUAUAUCUC [C40U U69C] | 0.36

Variant | self-cleavage
UAACAGGGGGCCACAGCAGAAGCGUUCACGUCGCAGCCCUCGUCAGAUUCUGGUGAAUCUGCGAAUUCUGCUGUAUAUCUC [C40U U41C] | 0.92
UAACAGGGGGCCACAGCAGAAGCGUUCACGUCGCAGCCCUGGUCAGAUUCUGGUGAAUCUGCGAAUUCUGCUGUAUAUCUC [C40U U41G] | 0.16
UAACAGGGGGCCACAGCAGAAGCGUUCACGUCGCAGCCCUAGUCAGAUUCUGGUGAAUCUGCGAAUUCUGCUGUAUAUCUC [C40U U41A] | 0.25
UAACAGGGGGCCACAGCAGAAGCGUUCACGUCGCAGCCCUUGUCAGAUUCUGGUGAAUCUGCGAAUUCUGCUGUAUAUGUC [C40U C79G] | 1.24
UAACAGGGGGCCACAGCAGAAGCGUUCACGUCGCAGCCCUUGUCAGAUUCUGGUGAAUCUGCGAAUUCUUCUGUAUAUCUC [C40U G70U] | 0.16
UAACAGGGGGCCACAGCAGAAGCGUUCACGUCGCAGCCCUUGUCAGAUUCUGGUGAAUCUACGAAUUCUGCUGUAUAUCUC [C40U G61A] | 0.42
UAACAGGGGGCCACAGCAGAAGCGUUCACGUCGCAGCCCUUGUCAGAUUCUGGUGAAUCUGCGAAUUCUGCUGUAUGUCUC [C40U A77G] | 0.58
UAACAGGGGGCCACAGCAGAAGCGUUCACGUCGCAGCCCUUGUCAGAUUCUGGUGAAUCUGCGAAUUCUGCUGUAUUUCUC [C40U A77U] | 0.81
UAACAGGGGGCCACAGCAGAAGCGUUCACGUCGCAGCCCUUGUCAGAUUCUGGUGAAUCUGCGAAUUCUGCUGUAUCUCUC [C40U A77C] | 0.74
UAACAGGGGGCCACAGCAGAAGCGUUCACGUCGCAGCCCUUGUCAGAUUCUGGUGAACCUGCGAAUUCUGCUGUAUAUCUC [C40U U58C] | 0.24
UAACAGGGGGCCACAGCAGAAGCGUUCACGUCGCAGCCCUUGUCAGAUUCUGGUGAAACUGCGAAUUCUGCUGUAUAUCUC [C40U U58A] | 0.3
UAACAGGGGGCCACAGCAGAAGCGUUCACGUCGCAGCCCUUGUCAGAUUCUGGUGAAUCUGCGAAUUGUGCUGUAUAUCUC [C40U C68G] | 0.28
UAACAGGGGGCCACAGCAGAAGCGUUCACGUCGCAGCCCUUGUCAGAUCCUGGUGAAUCUGCGAAUUCUGCUGUAUAUCUC [C40U U49C] | 0.36
UAACAGGGGGCCACAGCAGAAGCGUUCACGUCGCAGCCCUUGUCAGAUACUGGUGAAUCUGCGAAUUCUGCUGUAUAUCUC [C40U U49A] | 0.2
UAACAGGGGGCCACAGCAGAAGCGUUCACGUCGCAGCCCUUGUCAGAUUAUGGUGAAUCUGCGAAUUCUGCUGUAUAUCUC [C40U C50A] | 0.46
UAACAGGGGGCCACAGCAGAAGCGUUCACGUCGCAGCCCGUGUCAGAUUCUGGUGAAUCUGCGAAUUCUGCUGUAUAUCCC [C40G U80C] | 0.19
UAACAGGGGGCCACAGCAGAAGCGUUCACGUCGCAGCCCUUGUCAAAUUCUGGUGAAUCUGCGAAUUCUGCUGUAUAUCUC [C40U G46A] | 0.18
